Data published in paper PMC5063953 (Biochemical Pharmacology, 2016).
Where two headings read alike, the source gives them in different places. No end group written: not given here.

Legend:
[1] = tested on: hCRF-1R; details: ref [44], cited from earlier work
[2] = tested on: rSecR; details: ref [14], cited from earlier work
[3] = tested on: hSecR; details: cited from earlier work
[4] = tested on: SecR; details: R2.46A; ref [17]; cited from earlier work
[5] = target: human GLP-1R K6.40^351A (human) (UniProt P43220)
[6] = target: human GLP-1R E7.63^408A (human) (UniProt P43220)
[7] = target: human GLP-1R N2.52^182A (human) (UniProt P43220)
[8] = target: human GLP-1R R5.56^326A (human) (UniProt P43220)
[9] = target: human GLP-1R K4.64^288A (human) (UniProt P43220)
[10] = target: human GLP-1R Y3.53^250A (human) (UniProt P43220)
[11] = target: human GLP-1R R2.46^176A (human) (UniProt P43220)
[12] = target: human GLP-1R K6.35^346A (human) (UniProt P43220)
[13] = target: N-terminally double c-myc labelled wildtype human GLP-1R (human) (UniProt P43220)
[14] = target: human GLP-1R R5.40^310A (human) (UniProt P43220)
[15] = target: human GLP-1R R6.37^348A (human) (UniProt P43220)
[16] = target: human GLP-1R R3.30^227A (human) (UniProt P43220)
[17] = target: human GLP-1R Q7.65^410A (human) (UniProt P43220)
[18] = target: human GLP-1R K6.40^351A (human) (UniProt P43220); experiment: radioligand binding
[19] = target: human GLP-1R E7.63^408A (human) (UniProt P43220); experiment: radioligand binding
[20] = target: human GLP-1R R5.56^326A (human) (UniProt P43220); experiment: radioligand binding
[21] = target: human GLP-1R K4.64^288A (human) (UniProt P43220); experiment: radioligand binding
[22] = target: human GLP-1R Y3.53^250A (human) (UniProt P43220); experiment: radioligand binding
[23] = target: human GLP-1R R2.46^176A (human) (UniProt P43220); experiment: radioligand binding
[24] = target: human GLP-1R K6.35^346A (human) (UniProt P43220); experiment: radioligand binding
[25] = target: N-terminally double c-myc labelled wildtype human GLP-1R (human) (UniProt P43220); experiment: radioligand binding
[26] = target: human GLP-1R R5.40^310A (human) (UniProt P43220); experiment: radioligand binding
[27] = target: human GLP-1R R6.37^348A (human) (UniProt P43220); experiment: radioligand binding
[28] = target: human GLP-1R R3.30^227A (human) (UniProt P43220); experiment: radioligand binding
[29] = target: human GLP-1R Q7.65^410A (human) (UniProt P43220); experiment: radioligand binding
[30] = tested on: hGCGR; details: ref [15], cited from earlier work
[31] = tested on: rGCGR; details: ref [52], cited from earlier work
[32] = tested on: hVPAC2R; details: ref [35], cited from earlier work
[33] = tested on: hVPAC1R; details: cited from earlier work
[34] = tested on: hCLR-RAMP2; details: ref [60], cited from earlier work
[35] = tested on: hCLR-RAMP3; details: ref [60], cited from earlier work
[36] = tested on: hCLR-RAMP1; details: cited from earlier work
[37] = tested on: oPTH-1R; details: ref [57], cited from earlier work

Molecule: corticotropin-releasing factor [CRF]
- Effect compared with WT: cAMP potency (Gs) ([1]; K6.37A): Increased CRF mediated cAMP potency (Gs)
- Effect compared with WT: pERK1/2 (Gi) ([1]; K6.37A): reduced pERK1/2 (Gi)

Molecule: secretin: agonist of the secretin receptor
- Effect compared with WT: cAMP production ([2]; R3.30A): Reduced secretin-mediated cAMP production
- Effect compared with WT: cAMP potency ([2]; R4.64A): Decreased secretin mediated cAMP potency.
- Effect compared with WT: affinity or receptor expression ([3]; R6.37A/K6.40A, ref [17]): no effect on affinity or receptor expression
- Effect compared with WT: cAMP and calcium ([3]; R6.37A/K6.40A, ref [17]): Reduced secretin mediated cAMP and calcium
- Effect compared with WT: cAMP production ([3]; R6.37A, ref [8]): No effect on secretin mediated cAMP production
- Effect compared with WT: cAMP potency [4]: not cAMP potency
- Effect compared with WT: calcium potency [4]: Decreased secretin mediated calcium potency

Molecule: exendin-4 (from UniProt P26349 48-87) (peptide)
- −Log KA (functional affinity) from operational model fit of cAMP accumulation curves [5]: 9.31 −Log KA
- −Log KA (functional affinity) from operational model fit of iCa2+ mobilisation curves [5]: 7.15 −Log KA
- −Log KA (functional affinity) from operational model fit of pERK1/2 curves [5]: 8.12 −Log KA
- −Log KA (functional affinity) from operational model fit of cAMP accumulation curves [6]: 8.89 −Log KA
- −Log KA (functional affinity) from operational model fit of iCa2+ mobilisation curves [6]: 7.01 −Log KA
- −Log KA (functional affinity) from operational model fit of pERK1/2 curves [6]: 8.35 −Log KA
- −Log KA (functional affinity) from operational model fit of cAMP accumulation curves [7]: 9.16 −Log KA
- −Log KA (functional affinity) from operational model fit of pERK1/2 curves [7]: 8.21 −Log KA
- −Log KA (functional affinity) from operational model fit of cAMP accumulation curves [8]: 9.22 −Log KA
- −Log KA (functional affinity) from operational model fit of iCa2+ mobilisation curves [8]: 7.1 −Log KA
- −Log KA (functional affinity) from operational model fit of pERK1/2 curves [8]: 8.33 −Log KA
- −Log KA (functional affinity) from operational model fit of cAMP accumulation curves [9]: 8.16 −Log KA
- −Log KA (functional affinity) from operational model fit of pERK1/2 curves [9]: 7.01 −Log KA
- −Log KA (functional affinity) from operational model fit of cAMP accumulation curves [10]: 9.37 −Log KA
- −Log KA (functional affinity) from operational model fit of pERK1/2 curves [10]: 8.11 −Log KA
- −Log KA (functional affinity) from operational model fit of cAMP accumulation curves [11]: 8.95 −Log KA
- −Log KA (functional affinity) from operational model fit of iCa2+ mobilisation curves [11]: 7.39 −Log KA
- −Log KA (functional affinity) from operational model fit of pERK1/2 curves [11]: 8.12 −Log KA
- −Log KA (functional affinity) from operational model fit of cAMP accumulation curves [12]: 9.91 −Log KA
- −Log KA (functional affinity) from operational model fit of iCa2+ mobilisation curves [12]: 7.78 −Log KA
- −Log KA (functional affinity) from operational model fit of pERK1/2 curves [12]: 8.21 −Log KA
- −Log KA (functional affinity) from operational model fit of cAMP accumulation curves [13]: 9.24 −Log KA
- −Log KA (functional affinity) from operational model fit of iCa2+ mobilisation curves [13]: 7.46 −Log KA
- −Log KA (functional affinity) from operational model fit of pERK1/2 curves [13]: 8.31 −Log KA
- −Log KA (functional affinity) from operational model fit of cAMP accumulation curves [14]: 7.79 −Log KA
- −Log KA (functional affinity) from operational model fit of pERK1/2 curves [14]: 7.53 −Log KA
- −Log KA (functional affinity) from operational model fit of cAMP accumulation curves [15]: 9.37 −Log KA
- −Log KA (functional affinity) from operational model fit of iCa2+ mobilisation curves [15]: 7.08 −Log KA
- −Log KA (functional affinity) from operational model fit of pERK1/2 curves [15]: 8.35 −Log KA
- −Log KA (functional affinity) from operational model fit of cAMP accumulation curves [16]: 8.13 −Log KA
- −Log KA (functional affinity) from operational model fit of iCa2+ mobilisation curves [16]: 6.82 −Log KA
- −Log KA (functional affinity) from operational model fit of pERK1/2 curves [16]: 7.31 −Log KA
- −Log KA (functional affinity) from operational model fit of cAMP accumulation curves [17]: 9.41 −Log KA
- −Log KA (functional affinity) from operational model fit of iCa2+ mobilisation curves [17]: 7.1 −Log KA
- −Log KA (functional affinity) from operational model fit of pERK1/2 curves [17]: 8.35 −Log KA
- pKi [18]: 8.92 pKi
- pKi [19]: 8.29 pKi
- pKi [20]: 8.59 pKi
- pKi [21]: 7.39 pKi
- pKi [22]: 8.68 pKi
- pKi [23]: 8.61 pKi
- pKi [24]: 9.34 pKi
- pKi [25]: 8.87 pKi
- pKi [26]: 7.99 pKi
- pKi [27]: 8.8 pKi
- pKi [28]: 7.6 pKi
- pKi [29]: 9.08 pKi

Molecule: glucagon: peptide agonist of the glucagon receptor
- Effect compared with WT: affinity ([30]; K4.64L): Reduced glucagon affinity
- Effect compared with WT: expression and affinity ([30]; R3.30A): Reduced expression and glucagon affinity
- Effect compared with WT: expression and affinity ([30]; R5.40A): Reduced expression and glucagon affinity
- Effect compared with WT: potency in CRE reporter activity assay ([31]; E7.63A): Enhanced basal activity and enhanced potency in glucagon mediated CRE reporter activity assay
- Effect compared with WT: potency in CRE reporter activity assay ([31]; N7.61A): Enhanced potency in glucagon mediated CRE reporter activity assay
- Effect compared with WT: CRE reporter activity ([31]; R6.37A): Enhanced glucagon mediated CRE reporter activity (potency and Emax)

Molecule: vasoactive intestinal polypeptide [VIP]
- Effect compared with WT: cAMP potency ([32]; R6.37A): Reduced VIP mediated cAMP potency
- Effect compared with WT: cAMP potency ([32]; R6.40A): Reduced VIP mediated cAMP potency
- Effect compared with WT: cAMP production ([33]; E7.63A, ref [13]): Decreased VIP mediated cAMP production
- Effect compared with WT: cAMP production ([33]; R6.37A, ref [13]): No effect on VIP mediated cAMP production
- Effect compared with WT: IP3 production ([33]; R6.40A, ref [36]): Reduced VIP mediated IP3 production
- Effect compared with WT: cAMP ([33]; R6.40A, ref [36]): no effect on cAMP
- Effect compared with WT: cAMP production ([33]; Y3.53A, ref [55]): Reduced VIP mediated cAMP production
- Effect compared with WT: cAMP ([33]; Y6.35A, ref [13]): No effect on VIP mediated cAMP

Molecule: adrenomedullin: agonist at CLR-RAMP2 or CLR-RAMP3 complexes (YRQSMNNFQGLRSFGCRFGTCTVQKLAHQIYQFTDKDKDNVAPRSKISPQGY; ends and bridges not checked; cysteine pairing not given here; UniProt P35318 95-146, looked up)
- Effect compared with WT: cAMP production ([34]; K3.30A): Reduced adrenomedullin cAMP production
- Effect compared with WT: cAMP production ([34]; R4.64A): Reduced adrenomedullin mediated cAMP production
- function upon mutation of R4.64, in words ([34]; R4.64 mutated, [63]): altered adrenomedullin function
- Effect compared with WT: cAMP production ([35]; K3.30A): Reduced adrenomedullin cAMP production
- Effect compared with WT: cAMP production ([35]; R4.64A): Reduced adrenomedullin mediated cAMP production
- function upon mutation of R4.64, in words ([35]; R4.64 mutated, [63]): altered adrenomedullin function

Molecule: calcitonin gene related peptide [CGRP]
- Effect compared with WT: cAMP potency ([36]; E7.63A, ref [59]): Reduced CGRP-mediated cAMP potency
- Effect compared with WT: cAMP pEC50 ([36]; H5.40A, ref [59]): Reduced CGRP-mediated cAMP pEC50
- Effect compared with WT: cAMP production ([36]; K3.30A, ref [59]): No effect on CGRP mediated cAMP production
- Effect compared with WT: cAMP production ([36]; K6.37A, ref [10]): No effect on CGRP mediated cAMP production
- Effect compared with WT: affinity or cAMP production ([36]; N2.52A, ref [59]): No effect on CGRP affinity or cAMP production
- Effect compared with WT: cAMP production ([36]; N5.56A, ref [59]): No effect on CGRP cAMP mediated production
- Effect compared with WT: cAMP potency ([36]; R2.46A, ref [59]): Reduced CGRP mediated cAMP potency.
- Effect compared with WT: cAMP pEC50 ([36]; R4.64A, ref [59]): Reduced CGRP mediated cAMP pEC50.
- function upon mutation of R4.64, in words ([36]; R4.64 mutated, ref [60], [63]): not CGRP function
- reduction in affinity compared with WT ([36]; R6.40A, ref [10]): 5 fold
- reduction in cAMP production compared with WT ([36]; R6.40A, ref [10]): 30 fold

Molecule: urocortin: agonist at hCRF-1R (DNPSLSIDLTFHLLRTLLELARTQSQRERAEQNRIIFDSV; ends and bridges not checked; UniProt P55089 83-122, looked up)
- Effect compared with WT: IP3 (Gq) ([1]; K6.40A): reduced IP3 (Gq)
- Effect compared with WT: cAMP (Gs) ([1]; K6.40A): Increased urocortin mediated cAMP (Gs)

B1: parathyroid hormone (peptide, UniProt P01270 32-115, looked up)
Parathyroid hormone: SVSEIQLMHNLGKHLNSMERVEWLRKKLQDVHNFVALGAPLAPRDAGSQRPRKKEDNVLVESHEKSLGEADKADVNVLTKAKSQ
modifications: Parathyroid hormone
- Effect compared with WT: cAMP ([37]; E7.63 K): No effect on PTH mediated cAMP
- Effect compared with WT: cAMP production ([37]; H2.52A): No effect on PTH-1 cAMP production.
- Effect compared with WT: cAMP ([37]; R4.64A): No effect on PTH mediated cAMP
